No end group written: not given here.
Key:
[1] = target: T1, MHC class I allele A*0101 (A1) (Homo sapiens, UniProt P04439, A114D/A174V/A182V/D101N/D185E/E176A/E190D/L180R/Q94H/R68K/S129P/T187R/V100A/V91M/W191G); test: iTopia peptide binding assay, A*0101; details: percent of positive control peptide binding; peptide at 1.11×10^−5M
Method: (§1) The 9 mers were tested for Peptide Binding, Off Rate and Affinity using iTopia Epitope Discovery System in accordance with the manufacturer's instructions. Briefly, 96 well microtitre plates coated with MHC molecules representing different MHC alleles are used to identify candidate peptides. […] Determinations are performed in duplicate using an ELISA plate reader and included allele specific positive controls.
(§2) i) Peptide Binding—This assay measures the ability of individual peptides to bind to the MHC molecules under standardized optimal binding conditions. The assay is performed for all the test peptides across the selected MHC alleles. The test peptides identified as “binders” are characterized further in terms of affinity and dissociation experiments.
(§3) Following a period of binding under optimal conditions, excess antibody is removed and a measurement of total fluorescence taken (D).
(§4) The binding of the test peptides to the MHC molecules was performed at 1.11×10^−5M of peptide under optimal, standardised test conditions. A control peptide was run in parallel on the same plate and at the same concentration as the test peptides.
(§5) The level of binding is expressed as a percent of positive control peptide binding for each allele.

[2] = target: T2, MHC class I allele A*0201 (A2) (Homo sapiens, UniProt P04439, D140Y/D185E/D98H/E176V/E277Q/G131W/G231S/I119V/I121R/I166T/I218V/L300P/L318F/N151K/N90K/P208A/P217A/Q86G/Q94H/R138H/R169H/T345S); test: iTopia peptide binding assay, A*0201; details: percent of positive control peptide binding; peptide at 1.11×10^−5M
Method: as §1, §2, §3, §4, §5

[3] = target: T3, MHC class I allele A*0301 (A3) (Homo sapiens, UniProt P04439); test: iTopia peptide binding assay, A*0301; details: percent of positive control peptide binding; peptide at 1.11×10^−5M
Method: as §1, §2, §3, §4, §5

[4] = target: T4, MHC class I allele B*0702 (B7) (Homo sapiens, UniProt P01889); test: iTopia peptide binding assay, B*0702; details: percent of positive control peptide binding; peptide at 1.11×10^−5M
Method: as §1, §2, §3, §4, §5

[5] = target: T1, MHC class I allele A*0101 (A1); test: iScore multi-parametric analysis, A*0101; type: binding; details: level of binding: >0.5, 0.25-0.5, <0.25
Method in brief: (§6)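 Read-out is the iScore, a composite of complex stability (half-life) and ED50 describing how well each peptide reconstitutes a stable complex with the HLA class I molecule. For A*0201, scores above 0.5 denote good binding, 0.25–0.5 medium and below 0.25 poor.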

[6] = target: T2, MHC class I allele A*0201 (A2); test: iScore multi-parametric analysis, A*0201; type: binding; details: level of binding: >0.5, 0.25-0.5, <0.25
Method in brief: as §6

[7] = target: T3, MHC class I allele A*0301 (A3); test: iScore multi-parametric analysis, A*0301; type: binding; details: level of binding: >0.5, 0.25-0.5, <0.25
Method in brief: as §6

[8] = target: T4, MHC class I allele B*0702 (B7); test: iScore multi-parametric analysis, B*0702; details: level of binding: >0.5, 0.25-0.5, <0.25
Method in brief: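 Ranking score combining ED50 and stability half-life of peptide-MHC complexes, giving one measure of binding quality per peptide. Bands: <0.25 poor, 0.25–0.5 medium, >0.5 good quality binding.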

DRLTCAYPE [Peptide 160]
Peptide binding, MHC Class I Molecule A*0101 [1]: 0 % of control
Peptide binding, MHC Class I Molecule A*0201 [2]: 6 % of control
Peptide binding, MHC Class I Molecule A*0301 [3]: 5 % of control
Peptide binding, MHC Class I Molecule B*0702 [4]: 3 % of control

RTVKCVNRN [Peptide 37]
Peptide binding, MHC Class I Molecule A*0101 [1]: 7 % of control
Peptide binding, MHC Class I Molecule A*0201 [2]: 12 % of control
Peptide binding, MHC Class I Molecule A*0301 [3]: 12 % of control
Peptide binding, MHC Class I Molecule B*0702 [4]: 3 % of control

ADMVTWLKE [Peptide 152]
Peptide binding, MHC Class I Molecule A*0101 [1]: 0 % of control
Peptide binding, MHC Class I Molecule A*0201 [2]: 6 % of control
Peptide binding, MHC Class I Molecule A*0301 [3]: 4 % of control
Peptide binding, MHC Class I Molecule B*0702 [4]: 8 % of control

IFLLVLYLN [Peptide 185]
Peptide binding, MHC Class I Molecule A*0101 [1]: 0 % of control
Peptide binding, MHC Class I Molecule A*0201 [2]: 8 % of control
Peptide binding, MHC Class I Molecule A*0301 [3]: 0 % of control
Peptide binding, MHC Class I Molecule B*0702 [4]: 2 % of control

PDQCPALCE [Peptide 30]
Peptide binding, MHC Class I Molecule A*0101 [1]: 5 % of control
Peptide binding, MHC Class I Molecule A*0201 [2]: 3 % of control
Peptide binding, MHC Class I Molecule A*0301 [3]: 0 % of control
Peptide binding, MHC Class I Molecule B*0702 [4]: 1 % of control

ECSEAARTV [Peptide 34]
Peptide binding, MHC Class I Molecule A*0101 [1]: 2 % of control
Peptide binding, MHC Class I Molecule A*0201 [2]: 4 % of control
Peptide binding, MHC Class I Molecule A*0301 [3]: 0 % of control
Peptide binding, MHC Class I Molecule B*0702 [4]: 0 % of control

SFRNLTHLE [Peptide 127]
Peptide binding, MHC Class I Molecule A*0101 [1]: 1 % of control
Peptide binding, MHC Class I Molecule A*0201 [2]: 1 % of control
Peptide binding, MHC Class I Molecule A*0301 [3]: 1 % of control
Peptide binding, MHC Class I Molecule B*0702 [4]: 0 % of control

ERQNRSFEG [Peptide 95]
Peptide binding, MHC Class I Molecule A*0101 [1]: 0 % of control
Peptide binding, MHC Class I Molecule A*0201 [2]: 1 % of control
Peptide binding, MHC Class I Molecule A*0301 [3]: 1 % of control
Peptide binding, MHC Class I Molecule B*0702 [4]: 1 % of control

AGAFEHLPS [Peptide 68]
Peptide binding, MHC Class I Molecule A*0101 [1]: 6 % of control
Peptide binding, MHC Class I Molecule A*0201 [2]: 10 % of control
Peptide binding, MHC Class I Molecule A*0301 [3]: 3 % of control
Peptide binding, MHC Class I Molecule B*0702 [4]: 7 % of control

PFAFSGSNA [Peptide 80]
Peptide binding, MHC Class I Molecule A*0101 [1]: 0 % of control
Peptide binding, MHC Class I Molecule A*0201 [2]: 13 % of control
Peptide binding, MHC Class I Molecule A*0301 [3]: 3 % of control
Peptide binding, MHC Class I Molecule B*0702 [4]: 7 % of control

MRNRVLLEL [Peptide 165]
Peptide binding, MHC Class I Molecule A*0101 [1]: 0 % of control
Peptide binding, MHC Class I Molecule A*0201 [2]: 6 % of control
Peptide binding, MHC Class I Molecule A*0301 [3]: 4 % of control
Peptide binding, MHC Class I Molecule B*0702 [4]: 13 % of control

LNLSGSRLD [Peptide 62]
Peptide binding, MHC Class I Molecule A*0101 [1]: 2 % of control
Peptide binding, MHC Class I Molecule A*0201 [2]: 7 % of control
Peptide binding, MHC Class I Molecule A*0301 [3]: 2 % of control
Peptide binding, MHC Class I Molecule B*0702 [4]: 7 % of control

LPSLRQLDL [Peptide 71]
Peptide binding, MHC Class I Molecule A*0101 [1]: 0 % of control
Peptide binding, MHC Class I Molecule A*0201 [2]: 27 % of control
Peptide binding, MHC Class I Molecule A*0301 [3]: 0 % of control
Peptide binding, MHC Class I Molecule B*0702 [4]: 82 % of control

LKETEVVQG [Peptide 155]
Peptide binding, MHC Class I Molecule A*0101 [1]: 0 % of control
Peptide binding, MHC Class I Molecule A*0201 [2]: 3 % of control
Peptide binding, MHC Class I Molecule A*0301 [3]: 4 % of control
Peptide binding, MHC Class I Molecule B*0702 [4]: 3 % of control

RRPPLAELA [Peptide 57]
Peptide binding, MHC Class I Molecule A*0101 [1]: 2 % of control
Peptide binding, MHC Class I Molecule A*0201 [2]: 11 % of control
Peptide binding, MHC Class I Molecule A*0301 [3]: 2 % of control
Peptide binding, MHC Class I Molecule B*0702 [4]: 9 % of control

VRNLFLTGN [Peptide 47]
Peptide binding, MHC Class I Molecule A*0101 [1]: 0 % of control
Peptide binding, MHC Class I Molecule A*0201 [2]: 5 % of control
Peptide binding, MHC Class I Molecule A*0301 [3]: 0 % of control
Peptide binding, MHC Class I Molecule B*0702 [4]: 3 % of control

PWVCDCHMA [Peptide 148]
Peptide binding, MHC Class I Molecule A*0101 [1]: 0 % of control
Peptide binding, MHC Class I Molecule A*0201 [2]: 0 % of control
Peptide binding, MHC Class I Molecule A*0301 [3]: 0 % of control
Peptide binding, MHC Class I Molecule B*0702 [4]: 0 % of control

ADLSPFAFS [Peptide 78]
iScore, MHC Class I Molecule A*0101 [5]: 0
iScore, MHC Class I Molecule A*0201 [6]: 0.116
iScore, MHC Class I Molecule A*0301 [7]: 0
iScore, MHC Class I Molecule B*0702 [8]: 0

RHLDLSNNS [Peptide 119]
iScore, MHC Class I Molecule A*0101 [5]: 0
iScore, MHC Class I Molecule A*0201 [6]: 0.029
iScore, MHC Class I Molecule A*0301 [7]: 0
iScore, MHC Class I Molecule B*0702 [8]: 0

GWVSSSSPT [Peptide 14]
iScore, MHC Class I Molecule A*0101 [5]: 0
iScore, MHC Class I Molecule A*0201 [6]: 0.044
iScore, MHC Class I Molecule A*0301 [7]: 0
iScore, MHC Class I Molecule B*0702 [8]: 0

HFLYLPRDV [Peptide 111]
iScore, MHC Class I Molecule A*0101 [5]: 0
iScore, MHC Class I Molecule A*0201 [6]: 0.227
iScore, MHC Class I Molecule A*0301 [7]: 0
iScore, MHC Class I Molecule B*0702 [8]: 0

RGPAAGDGR [Peptide 4]
iScore, MHC Class I Molecule A*0101 [5]: 0
iScore, MHC Class I Molecule A*0201 [6]: 0.032
iScore, MHC Class I Molecule A*0301 [7]: 0
iScore, MHC Class I Molecule B*0702 [8]: 0

VSLTYVSFR [Peptide 124]
iScore, MHC Class I Molecule A*0101 [5]: 0
iScore, MHC Class I Molecule A*0201 [6]: 0
iScore, MHC Class I Molecule A*0301 [7]: 0.025
iScore, MHC Class I Molecule B*0702 [8]: 0

HMADMVTWL [Peptide 151]
iScore, MHC Class I Molecule A*0101 [5]: 0
iScore, MHC Class I Molecule A*0201 [6]: 0.821
iScore, MHC Class I Molecule A*0301 [7]: 0
iScore, MHC Class I Molecule B*0702 [8]: 0

SASSFSSSA [Peptide 19]
iScore, MHC Class I Molecule A*0101 [5]: 0
iScore, MHC Class I Molecule A*0201 [6]: 0.045
iScore, MHC Class I Molecule A*0301 [7]: 0
iScore, MHC Class I Molecule B*0702 [8]: 0

LEDNALKVL [Peptide 133]
iScore, MHC Class I Molecule A*0101 [5]: 0
iScore, MHC Class I Molecule A*0201 [6]: 0.122
iScore, MHC Class I Molecule A*0301 [7]: 0
iScore, MHC Class I Molecule B*0702 [8]: 0
